Experimental data reported in US20240270853A1 (Chugai, published 2024).

T1: Recombinant mouse DDR2 ECD-Fc (R&D systems, Cat. No. 7479-DR-050) (mouse, UniProt Q62371 22-399, biotinylated)
T1 construct: Bought protein; not shown: Fc part of the bought fusion protein, not described
T1 sequence: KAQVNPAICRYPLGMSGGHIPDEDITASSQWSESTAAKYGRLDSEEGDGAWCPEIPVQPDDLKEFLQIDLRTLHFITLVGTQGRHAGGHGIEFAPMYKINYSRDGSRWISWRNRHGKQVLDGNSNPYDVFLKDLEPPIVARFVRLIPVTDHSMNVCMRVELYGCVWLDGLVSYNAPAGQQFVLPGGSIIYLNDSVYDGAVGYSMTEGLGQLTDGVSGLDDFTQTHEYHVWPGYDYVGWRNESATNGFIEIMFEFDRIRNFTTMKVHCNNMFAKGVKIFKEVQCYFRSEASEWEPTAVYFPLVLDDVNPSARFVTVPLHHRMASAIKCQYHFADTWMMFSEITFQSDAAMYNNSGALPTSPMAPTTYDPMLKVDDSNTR

B1: DAB0048 (antibody, V domains shown)
VH: QSVEESGGRLITPGTPLTLTCTASGFSLSIYYMIWVRQAPGKGLEWIGYIWSGSTTDYASWAKGRFTISKTSTTVDLKITSPTTEDTATYFCARVYAGYGYGSDLWGQGTLVTVSS
VL: AAVLTQTPSPVSAAVGGTVSISCQSSQSVYNNNWLAWYQQKPGQPPKLLIYSASTLASGVPSRFKGSGSGTQFTLTISDVQCDDAATYYCAGGYSTNSDKNAFGGGTKVEIK
notes: Variable regions from immunized rabbits
B2: DAB0094 (antibody, V domains shown)
VH: QSVEESGGRLVTPGTPLTLTCTVSGFSLSSYSVAWVRQAPGKGLEWIGYISYSGSTYYASWVNGRFTISKTSTTVDLKMTSLTASDTATYFCARDPGYSRDLWGQGTLVTVSS
VL: DVVMTQTPSSVSEPVGGTVTIKCQASQSIGSYLSWYQQKPGQPPKLLIYRASTLASGVSSRFKGSGSGTEFTLTINGLECADAAIYYCQSSYVGVSHGSFGGGTKVEIK
notes: as for B1
B3: DAB0065 (antibody, V domains shown)
VH: QSVEESGGRLVTPGTPLTLTCTVSGFSLSTSAMSWVRQAPGKGLEWIGMITYGGSGSTWYASWANGRFTISKTSTTVTLKMTSPTTEDTASYFCARVYGTIGSNFYSIYSFNLWGQGTLVTVSS
VL: AAVLTQTPSPVSAAVGGTVSISCQSSKSVYNSNYLSWYQQKPGQPPKLLIYYTSALASGVSSRFKGSGSGTRFTLTISDVQCDDAATYYCAGGYSSSSDNGFGGGTKVEIK
notes: as for B1
B4: DAB0045 (antibody, V domains shown)
VH: QSVEESGGRLVTPGTPLTLTCTVSGFSLSSYSMGWVRQAPGKGLEYIGVINTSDSAYYASWAKGRFTISRTSTTVDLKMTSLTTEDTATYFCARAIGYYGSGWGACYFNLWGQGTLVTVSS
VL: AIKMTQTPSSVSAAVGGTVTVNCQASEDIKSYLAWYQQKPGQPPKLLIYSASTLASGVSSRFKGSGSGTQFTLTISDLECADAATYYCQSYYGTSTTGEYNAFGGGTKVEIK
notes: as for B1
B5: DAB0060 (antibody, V domains shown)
VH: QSVEESGGRLVTPGTALTLTCTASGFSLSSYDMSWVRQAPGEGLEWIGTIFTEGSTSCASWVKGRFTISRTSTTVDLKITSPTTEDTATYFCVRGTTSNRLWGQGTLVTVSS
VL: DVVMTQTPASVEAVVGATVTIRCQASESITNYLSWYQQKPGQPPKVLIYYASTLESGVPSRFKGSGSGTQFTLTISDLECADAATYYCQSNYFSSSYSYGNTFGGGTKVEIK
notes: as for B1
B6: DAB0069 (antibody, V domains shown)
VH: QSLEESGGRLVTPGTPLTLTCTASGFSLSNYYMQWVRQAPGKGLEWIGIVYPGSSAYYANWAKGRFTISKTSTTVDLKMTSLTTEDTATYFCAGSSNSVYSFNLWGQGTLVTVSS
VL: AYDMTQTPSSVSAAVGGTVTIKCQASESIYRSLAWYQQKPGQPPKLLIYSASTLTSGVSSRFKGSGSGTEFTLTISDLECADAGTYYCQQGGSFSNIVNTFGGGTKVEIK
notes: as for B1

The binders below were run against T1, Recombinant mouse DDR2 ECD-Fc (R&D …) (assay: Octet tandem binning on captured mouse DDR2 ECD-Fc; competitor Ab1 (bound first) DAB0093).
Experimental: (§1) Competitive epitope binning experiment was performed by real-time binding assay using Octet (Pall ForteBio). Recombinant mouse DDR2 ECD-Fc (R&D systems, Cat. No. 7479-DR-050) was biotinylated and captured onto streptavidin biosensor tips (Pall ForteBio) as antigen. The antigen captured tips were dipped into 15 or 40 microgram (micro g)/mL of a first set of antibodies for 300 seconds. Then the tips were incubated with 15 or 40 micro g/mL of a second set of antibodies for 300 seconds. To eliminate an effect of antibody dissociation, the antibody concentration in the second set was the same with that of the first set. Result was analyzed by DATA Analysis HT software (Pall ForteBio, Version 10.0.1.7).
(§2) In Table 3, “Abl” indicates antibody in the first set and “Ab2” indicates antibody in the second set.

Row | Binder | Octet response of Ab2
1 | B1 | -0.0129
2 | B2 | 1.48
3 | B3 | 1.66
4 | B4 | 1.13
5 | B5 | 0.857
6 | B6 | 1.5

The binders below were run against T1, Recombinant mouse DDR2 ECD-Fc (R&D …) (assay: Octet tandem binning on captured mouse DDR2 ECD-Fc; competitor Ab1 (bound first) DAB0048).
Experimental: as §1, §2

Row | Binder | Octet response of Ab2
7 | B1 | 0
8 | B2 | 1.42
9 | B3 | 1.65
10 | B4 | 1.2
11 | B5 | 0.82
12 | B6 | 1.57

What follows are binders tested against T1, Recombinant mouse DDR2 ECD-Fc (R&D …) (assay: Octet tandem binning on captured mouse DDR2 ECD-Fc; competitor Ab1 (bound first) DAB0060).
Experimental: as §1, §2

Row | Binder | Octet response of Ab2
13 | B1 | 1.31
14 | B2 | 0.0985
15 | B3 | 1.51
16 | B4 | 1.09
17 | B5 | 0
18 | B6 | 1.35

Each binder was assayed against T1, Recombinant mouse DDR2 ECD-Fc (R&D …) (assay: Octet tandem binning on captured mouse DDR2 ECD-Fc; competitor Ab1 (bound first) DAB0045).
Experimental: as §1, §2

Row | Binder | Octet response of Ab2
19 | B1 | 1.32
20 | B2 | 1.22
21 | B3 | 0.0398
22 | B4 | 0
23 | B5 | 0.591
24 | B6 | 0.0335

These binders were tested against T1, Recombinant mouse DDR2 ECD-Fc (R&D …) (assay: Octet tandem binning on captured mouse DDR2 ECD-Fc; competitor Ab1 (bound first) DAB0065).
Experimental: as §1, §2

Row | Binder | Octet response of Ab2
25 | B1 | 1.49
26 | B2 | 1.37
27 | B3 | 0
28 | B4 | -0.0102
29 | B5 | 0.766
30 | B6 | -0.0058

These binders were tested against T1, Recombinant mouse DDR2 ECD-Fc (R&D …) (assay: Octet tandem binning on captured mouse DDR2 ECD-Fc; competitor Ab1 (bound first) DAB0069).
Experimental: as §1, §2

Row | Binder | Octet response of Ab2
31 | B1 | 1.47
32 | B2 | 1.3
33 | B3 | 0.0322
34 | B4 | -0.001
35 | B5 | 0.615
36 | B6 | 0

The binders below were run against T1, Recombinant mouse DDR2 ECD-Fc (R&D …) (assay: Octet tandem binning on captured mouse DDR2 ECD-Fc; competitor Ab1 (bound first) DAB0094).
Experimental: as §1, §2

Row | Binder | Octet response of Ab2
37 | B1 | 1.5
38 | B2 | 0
39 | B3 | 1.55
40 | B4 | 1.07
41 | B5 | -0.054
